This note sets out measurements from the supplement of paper PMC12764529.

± gives the half width of the 95% confidence interval.

A short description of data set [1]: folding stability dG unfold (combined trypsin and chymotrypsin); higher = more stable. The procedure, abridged:
(§1)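 Unfolding free energy was derived, per protease or combined, by relating Bayesian-fitted K50 values from sequencing counts to a sequence-predicted unfolded-state K50 and a shared folded-state K50. The underlying digests exposed cysteine-free mini-proteins under 80 residues, in a PA-tagged cDNA display construct, to trypsin and chymotrypsin at 11 threefold-diluted concentrations and to a no-protease condition. A filter kept only designs with AlphaFold2 dimer inter-PAE above 15.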

The nature of data set [2]: folding stability dG unfold from trypsin proteolysis; higher = more stable. The procedure, abridged:
as §1

Data set [3] in a line: folding stability dG unfold from chymotrypsin proteolysis; higher = more stable. The procedure, abridged: as §1

In the case of “SAGGSAGGSDDMIPIPFKIKLKDPNGKPHEFPVTIWINPEDGMIMIRYPNQPIMIDPDKIEIESAGGSAGGS [r20_48_TrROS]”, the “folding stability dG unfold” value was 1.01 ± 0.16 kcal/mol in data set [1], 0.975 ± 0.089 kcal/mol in data set [2] and 1.07 ± 0.19 kcal/mol in data set [3].

For the sequence “SAGGSAGGSDIPIEIVDVEHTDNMISVIIKGPDGNYFVINFQFNPGNGKFNVNISIIPPEDLKSAGGSAGGS [r20_70_TrROS]”, the “folding stability dG unfold” value worked out at 3.55 ± 0.26 kcal/mol in data set [1], 2.07 ± 0.21 kcal/mol in data set [2] and 3.95 ± 0.26 kcal/mol in data set [3].

Take “SAGGSAGGSDKIVERLQKRFPNVRISNIQPTPDGVTIQIENPDGKEFTIPYDELEKHGIEIEPSAGGSAGGS [r12_3_TrROS]”: the entries for the “folding stability dG unfold” value in data set [1], in data set [2] and in data set [3] were 0.456 ± 0.16 kcal/mol, 0.217 ± 0.17 kcal/mol and 0.595 ± 0.085 kcal/mol, respectively.

On to “SAGGSAGGSDKVVEFTFKIPSKDITAEDIAKAVKEAFPGVKKIEVTLYPGEGTAKVKVYLEPSSAGGSAGGS [r20_31_TrMRF]”, for which the “folding stability dG unfold” value came out at 4.29 ± 0.18 kcal/mol in data set [1], 3.52 ± 0.16 kcal/mol in data set [2] and 4.44 ± 0.088 kcal/mol in data set [3].

Consider “SAGGSAGGSDMVLVTAPVDIPPNVKVEIKLKDGYETVSYDPESGRLVILVPANKLDEVLEAIKSAGGSAGGS [r12_476_TrMRF]”, for which the “folding stability dG unfold” value in data set [1] stood at 1.65 ± 0.075 kcal/mol; in data set [2], 0.996 ± 0.026 kcal/mol; in data set [3], 2.01 ± 0.087 kcal/mol.

Turning to “SAGGSAGGSDNVKIEWEYNPENGVYTHEVYYDDGRPVTIIINPAEGPIWVFDPPDGKPIAPIPSAGGSAGGS [r12_657_TrROS]”, the “folding stability dG unfold” value is 1.07 ± 0.073 kcal/mol in data set [1], 1.36 ± 0.05 kcal/mol in data set [2] and 0.833 ± 0.023 kcal/mol in data set [3].

“SAGGSAGGSDPDLDIPPAPLEEIYIPGTGRLLVLYEPTGLVAAYPPSGSFEIGVYDPETGKISSAGGSAGGS [r12_420_TrMRF]”: the figures for the “folding stability dG unfold” value in data set [1], in data set [2] and in data set [3] were -0.297 ± 0.12 kcal/mol, -0.0238 ± 0.073 kcal/mol and -0.775 ± 0.3 kcal/mol, respectively.

With “SAGGSAGGSDPSEVRLTFTVTVELTFDAVLFYEPGTGRLVAVAPYLRVEVEVEVTLTFPADALSAGGSAGGS [r12_600_TrMRF]”, the entries for the “folding stability dG unfold” value in data set [1], in data set [2] and in data set [3] were 4.63 ± 0.21 kcal/mol, 3.17 ± 0.096 kcal/mol and 5.04 ± 0.11 kcal/mol, respectively.

For the sequence “SAGGSAGGSDRYLAVVFVRRADDPTPEVRTFTGIRTLADVERAVADALPADVAEVRIVVFPVRSAGGSAGGS [r20_29_TrMRF]”, the entries for the “folding stability dG unfold” value in data set [1], in data set [2] and in data set [3] were 1.67 ± 0.12 kcal/mol, 1.59 ± 0.055 kcal/mol and 1.82 ± 0.12 kcal/mol, respectively.

Consider “SAGGSAGGSDTLEYEVPLEDGSTIRITLFPDGTARVELEDGTPVAEIEVPPDTSIEELIARIRSAGGSAGGS [r12_990_TrMRF]”, for which the “folding stability dG unfold” value in data set [1] came out at 2.45 ± 0.076 kcal/mol; in data set [2] it was 2.74 ± 0.081 kcal/mol; in data set [3] it was 2.06 ± 0.063 kcal/mol.

In the case of “SAGGSAGGSDTPTINIPPGMGNPEQAIEQLKEIREHFPPGKKISISAPGGWKPELKEAGLITVSAGGSAGGS [r12_992_TrROS]”, the “folding stability dG unfold” value in data set [1] is 0.513 ± 0.11 kcal/mol; in data set [2], -0.37 ± 0.11 kcal/mol; in data set [3] it was 1.23 ± 0.08 kcal/mol.

As to “SAGGSAGGSDVEVEEVDVEIEVNGKKFKVKIYRNKKDKNRYYIFFEDTGKVFEIDKNGNIRPLSAGGSAGGS [r12_580_TrROS_Hall]”, the “folding stability dG unfold” value is 3.21 ± 0.064 kcal/mol in data set [1], 2.74 ± 0.1 kcal/mol in data set [2] and 3.49 ± 0.044 kcal/mol in data set [3].

For “SAGGSAGGSDVEVTVTLEYDEETGVLYVTAEVRDKETGRTVRVVVKFDLETNEWEVVAVEVLPSAGGSAGGS [r20_163_TrROS_Hall]”, the “folding stability dG unfold” value in data set [1] is 3.91 ± 0.11 kcal/mol; in data set [2] it was 2.92 ± 0.16 kcal/mol; in data set [3], 4.25 ± 0.16 kcal/mol.

Consider “SAGGSAGGSDVSEEELRAIAEEIAAELGLSDITVEVEKLPTAVVRITITNPATGETIEIEVPESAGGSAGGS [r12_1000_JUSTAS]”, for which the “folding stability dG unfold” value was 1.79 ± 0.047 kcal/mol in data set [1], 1.75 ± 0.038 kcal/mol in data set [2] and 1.77 ± 0.061 kcal/mol in data set [3].

With “SAGGSAGGSDVTVTEYDVTLTVDVTFTAPDANGNPVTTTTPVTIPLKVTVFDFGTARLVVVEGSAGGSAGGS [r20_58_TrMRF]”, the “folding stability dG unfold” value in data set [1] is 3.57 ± 0.058 kcal/mol; in data set [2] it was 2.86 ± 0.087 kcal/mol; in data set [3], 3.82 ± 0.048 kcal/mol.

On to “SAGGSAGGSDYEYENEKDPDGQTKMKMRPKPPPVTVEVLIKLPNGLYFPIEITIYGNHITISISAGGSAGGS [r12_784_TrROS]”, for which the entries for the “folding stability dG unfold” value in data set [1], in data set [2] and in data set [3] were 2.32 ± 0.23 kcal/mol, 2.17 ± 0.12 kcal/mol and 2.52 ± 0.075 kcal/mol, respectively.

For the sequence “SAGGSAGGSDYKIEIEVEPMDPEDGYYQVELEIYDPNNGEPKEKIPVHMDSPEDAKDAIKELISAGGSAGGS [r12_26_TrROS]”, the “folding stability dG unfold” value in data set [1] came out at 0.456 ± 0.084 kcal/mol; in data set [2], 0.499 ± 0.09 kcal/mol; in data set [3] it was 0.362 ± 0.024 kcal/mol.

Take “SAGGSAGGSEEELKKLLDNIKEVKVVENENGEKYVVFTVTDKNGKKITIVAKSPEARELAKKLSAGGSAGGS [r12_466_TrROS_Hall]”: the “folding stability dG unfold” value in data set [1] came out at 1.96 ± 0.11 kcal/mol; in data set [2] it was 1.45 ± 0.066 kcal/mol; in data set [3], 2.35 ± 0.046 kcal/mol.
